From the DeepSol protein solubility set

Experiment: soluble on expression in E. coli; label from the status in PepcDB or PDB records

Row | Sequence | soluble on expression in E. coli
1 | SNGAGLAADIQLQRDAKTPLALSAKLAEVFFRTGNPLAATLADWPGLLELGNGRATAAAGWKLDAAGGSSLDLDLTLKGLDGIYDRSELKGLGGSLALRLRGGQLSLDSPGLSLAEANPGLPLGPVSFRGRYEAPLSAPGSGRLSWQTLQSGLFGGQASVPAGSIRLGQAEQKFALRIQGIQLGEIFRVYPAEGLAGEGTLDGELPLMLNRWKPSVSGGQVKAREPGYLRFRSAKIEALGRSNPGMKLVADALDDFHYDVLQSSVDYHENGKLLLGLRLQGSNPDLEKGRPVNLNVNLEEDIPALLTSLQLSDRVSETIRQ | not soluble
2 | MHHHHHHSSGVDLGTENLYFQSMTTSLEALPTGTVLTDKSGRQWKLKSFQTRDNQGILYEAAPTSTLTCDSGPQKQKFSLKLDAKDGRLFNEQNFFQRAAKPLQVNKWKKLYSTPLLAIPTCMGFGVHQDKYRFLVLPSLGRSLQSALDVSPKHVLSERSVLQVACRLLDALEFLHENEYVHGNVTAENIFVDPEDQSQVTLAGYGFAFRYCPSGKHVAYVEGSRSPHEGDLEFISMDLHKGCGPSRRSDLQSLGYCMLKWLYGFLPWTNCLPNTEDIMKQKQKFVDKPGPFVGPCGHWIRPSETLQKYLKVVMALTYEEKPPYAMLRNNLEALLQDLRVSPYDPIGLPMVP | soluble
3 | MAGDPMNNNSKNNSRNVVTMNQASQSYAAQESSKMCLFEPRVFSDTQDIADELKNRRATLVNLQRIDQVSAKRIIDFLSGTVYAIGGDIQRVGTDIFLCTPDNVEVAGSITDHIENMEQHYELEHHHHHH | not soluble
4 | MSLSFASSACFNEAGTMFRIEPNLIKAIALVESNLKKDSIGKNRDKKNNIKSFDYGLMQINQMHIPMLKKRGIIKDERDLLDNPCLNIKIGTEILYKHFSRCGMTWQCLGTYNAGFAMDNQKKRLQYAKKIYIVYTRLNELDNRKALAEGHHHHHH | soluble
5 | MSTELIAAVEAADSAEGLVRAVAALSAARTDAAIPTLISVLAFNNPGAAVVAVDGLIQLGSPAAQAILNNLDDYNYGARAWALRALAGIGEPAALPLLLSAAREDFSLSVRRAATYGLGRVRWADLSESDRLAQQQQCYETLKLCLQYDPEWVVRYAAAAALETLAPAATQLQSAIAETLNRQAHSDEERAVQARSRLAERRLAGGVLEHHHHHH | soluble
6 | MVKSMIAVISDIHSNLEALNAVLNDIKNRGIKKIFCLGDIVGYGANPNECVELIRDLNCLSVVGNHDYGVLGKESLDYFNKYGAIAILWTKKVIKNENLKFLDSLPLIIEENIKGKKVIFSHANPKHPEIWEYLFPDYVDDVFNYGDLIFVGHSHIPFVNSEEGNLLLHEGKIYLDEDKKYLINPGSVGQPRDGINKASYCIFDEKDFKIEIVRVEYDIKKAYEKIVKNRLPEWLGERLFLGR | soluble
7 | MKVNVSCSSVQTTIDILEENQGEDESILTLGQLRDRIATDNDVDVETMKLLHRGKFLQGADDVSLSTLNFKENDKIIVMGGKNALVDDAGFKMLMQYEKHNLSNLQKAYDLNLRDVADLERGFLEKPKQVEMGKKLEKKVKYFNEEAERHLETLDGMNIITETTPENQAKRNREKRKTLVNGIQTLLNQNDALLRRLQEYQSVLNGDIPE | soluble
8 | MGSDKIHHHHHHMLNLEQLNAFIAAVEKGSFSAAARHIGKSQSSVSIGVNNLELDLGVELFDRSTKYPQLTEQGERLYHQAKALMRQATRMESYAKGVIEAVEDQLVIGADPLVPMSVFDSALEKMAEKFPFTRVKLVKLTGNHLNRAIEADEVDVGFNIMSEAVPENLDFIGIARIEWVCICSPDYKFADLEAVDSEMLINERQIVCSSMLQNEYLAKLGRVSQETWEASDLDDMIRLVEQGIGWGIIPLSMYEEKAAIGTLSTFKPVIEKETGLITVDLLWKSTAQLGPAKSFFIDLLKR | not soluble
9 | TLAAKAAEIHPTSLDTRLDVAAAPAELQQVAQSFNAMLERLDDGYQRLQQFSADLAHEIRTPIGSLMGHGQVALRQPRSNEEYQALIASNQEELERIARMVESILFLARADDVRAAVERSRLDLGEELRRQAEYFEGLAEERGLSLDVQVSGQLRADPQLFRRALSNLLANAIRYASADSLIEVRGLRRSGEFLLSVENACDRLPAEPLSRLFDRFYRGDAARSDAQSSGLGLAIVQAIMRLHGGRAEASAPAPGRIRFDLAFPAQD | not soluble
10 | MSEMSAIYRVKQYILNLIKDGELTNGSKLPSNLSIARALNVKTDDVYDGIDELITEQVVTDNFEEGTSVKVKPPFYYPLNKIISIGTMIKEAGYEAGTEYLNLDEQPATILDAEHLGIETKEPITIIERLRTANHKPVVYCLDKIAKTYLTCTDYQQSSGSMLEAIKASTNHQIMHAEMDLEAISYEPHISEVLNASPHEGLMLLKVVHYDEKHQPILYSLNYIKSSLVKFTITKSE | not soluble
11 | MSLVAMITTVVGSYPVVKKEETFLDKVKKVFGLYDEYKYAIERAVKDQVKAGVNIISDGQVRGDMVEIFTNNMYGFDGKRVVGRVEFIKPITLKDILYAKSIAKKLNPNVEIKGIITGPCTIASSVRVESCYSDNRDENLIYDIAKALRKEVEALKKHVPIIQIDEPILSTGMYDFDVARKAIDIIVDGLNIKFAMHVCGNVYNIIDELNKFNVDILDHEFASNKKNLVILESMEKKVGFGCVNTKVKKVESVEEIKSLIEEGIEILKNNEKLNKNLSDNILIDPDCGMRLLPIDVAFNKLKNMVEATKLIEGHHHHHH | soluble
12 | MIFRRSRPGTIGAVTLLCASLLAMPASSACTRFVYHGANDEVITARSMDWKVDVGTNLWAFPRGMQRSGQAGPNSIQWTSKHGSVIASGYDISTTDGMNEAGLVANVLWLAESSYPEYDGKTPGLTLAAWAQYVLDNFASVREAVDTLASEPFTVVTDNVPGEQRPATLHLSLSDASGDSAIIEYIDGKQVIHHNRAYQVMTNSPTFDKQLALNEYWKQIGGTVMLPGTNRASDRYARAYFYVNAIPKSEDPVEAIASVFSVIRNVSVPYGITTPDQPNISSTRWRTVADHKRKRYFFESALTPNIFWIDLGALDFSAESGKVMKLDLGPDQAHIYSGQANAHFEQAAPFKFLGL | not soluble
13 | MVHYKLTYFNARGLAEISRQLFHMAGVEFEDERINEEKFSQLKPTFPSGQVPILCIDGAQFSQSTAIARYLARKFGFVGQTAEEELQADEVVDTFKDFIESFRKFVIAVLSGESEEILKNIREEVIKPAVKTYTAYLKAILEKSSSGYLVGNELTWADLVIADNLTTLINAELLDIENDKLLKEFREKIIETPKLKEWLAKRPETRF | not soluble
14 | MREVLYRSDIYVFGRYPMSSFIGYPGLSSSSFCTHINFFYASSCTSTARVFRKKWREIFFVLARKNFTSRAKSKIFPRHVFRDMNKEIFRTQTI | not soluble
15 | MGSDKIHHHHHHMTEKFNRQRAENLIAIANQFAQLGKVTAVKAFGSGNINDTFLVTLDSSKEQHFVLQRINTQVFRQPKLIMQNMRTFTEHVHKRLQHTPLNRRWEVPRVLLTKDAQDHCQDSDGSFWRAISFIEGSQSFDTMRDRSQAKEIGYALGMFHNLISDLPPEKLADTLQGFHITPLYLQHYEEVLAKTSASQSSEVNYCLQFVSDRQAFAHILENAKAEGKLPLRLMHGDPKINNVMFDTVTQQAVSVIDLDTVKPGLVHYDIGDCLRSGCNQAGEETENWESVHFDPGLCQGILQGYLSVAKAFLTENDYAYIYDAIRLIAFELGLRFFADYLAGNVYFKVKHPEHNLARAIVQFKLTESIESQETQIRNIIKDMK | not soluble
16 | RHQNYGVPWTPGETRQVWDVEARIEFNANGNEVKASLAAPHTQSGYTLIGESASSSGYGVSYINSDSGRRAEWSIRQAKGPQTIYYKAQFLVDPQAKVEPLPPAGDITPPTLSAPQQAAASALIDQAMSRSADNVTFARELIKTLNDPDSQNSALLLNDFDRTDALHKILLSAGVQSKIVGVIELEDGRRRQTIQPMVQVWSGKDWVLFSPNSEQKAVKPNLLVWDESNVSLLDLVGGKNSQVHFSMIKQEVTPQQATNNKVEADGLLNLSIHSLPLEEQAMFK | soluble
17 | MGHHHHHHSHMVGSRRVKAQTFAERRERSFSRSWSDPTPMKADTSHDSRDSSDLQSSHCTLDEAFEDLDWDTEKGLEAVACDTEGFVPPKVMLISSKVPKAEYIPTIIRRDDPSIIPILYDHEHATFEDILEEIERKLNVYHKGAKIWKMLIFCQGGPGHLYLLKNKVATFAKVEKEEDMIHFWKRLSRLMSKVNPEPNVIHIMGCYILGNPNGEKLFQNLRTLMTPYRVTFESPLELSAQGKQMIETYFDFRLYRLWKSRQHSKLLDFDDVL | not soluble
18 | TDLSQRPRRLRKSPALRAMFEETTLSLNDLVLPIFVEEEIDDYKAVEAMPGVMRIPEKHLAREIERIANAGIRSVMTFGISHHTDETGSDAWREDGLVARMSRICKQTVPEMIVMSDTCFCEYTSHGHCGVLKEHGVDNDATLENLGKQAVVAAAAGADFIAPSAAMDGQVQAIRQALDAAGFKDTAIMSYSTKFASSFYGPFREAAGSALKGDRKSYQMNPMNRREAIRESLLDEAQGADCLMVKPAGAYLDIVRELRERTELPIGAYQVSGEYAMIKFAALAGAIDEEKVVLESLGSIKRAGADLIFSYFALDLAEKKILR | soluble
19 | MAHHHHHHMATASPSLSSNCFIDAATYFESRRGRRTFPERNASQILLGDASANSPIEEEEGLVRRQAQASAPVAWQQQQQQRHQQMRPTRRPRGPGIAFAARIEASGFPAAASRRSACADVVPECLYQYDTSELRTHKRPAQMPNRVKQCDRNLQLFLRPEEQVVRSAAAAVMLGESRDGQLSYSRYPSSQAHEHSKDPRMTADAIEASSSPFSDSAPHDQAMMTDRRSCLPYAPAAELDDSLLLKESLSSDRLRLLEHLYQRERSRLRGASRSVERDVGAVAEEDARAWHGQAPVSSLPWGTTVLPFRHGDSADVAANLPSLRRRAERSSVRRDDGDGAVHAHPLQGRDWQPWERKYACEAHPVTPRTRSSFHASSQIADSNERSDNDNDRNGGVDYTHAKSFGNATCSANWRCASASHRRRVTGSYDDFSDSTEARNEPPKHTTRIGSRMAMADAAPRVPHISAWFAPLRNDRVARQAHHTRSADHARASHSLRGEKERQAGQLQRHISAASPSVQGSSSSTAAGARPVETSPAASARTQATVTLSDVCTHQPLRAPSLQQRQHGKLAGSAASSPLFPTSSARVQGRDDAALTLRDVCGALNTAAVVM | not soluble
20 | MGSDKIHHHHHHMTQRTFTPPWWARNPHVQTILPVLTKVNKPALTRQRLELEDGDFIDLDWLAKPTQTAPTQIEPIVVLVHGLEGSADSHYARRLLTLLDDHKVAALVHHHRSCSGVTNRLARSYHSGDTQDLHTTLSQLRRDYPDSPLLAVGYSLGGNVLTKYMGEHGSDSLVDRAVVISAPLQLGACAKRLRHGFSKVYQSYLIKQLQQKVRDKLALPDLSAQMPVTQAEVESLTTFHLFDDRVTAPLHGFDGVEDYYRRASGLPYLSQVAKPTLVIHAKDDPFMTDEVIPTQEALSPQVTYELHPQGGHVGFIDGGHPFKPRYYLEQRIVHFLLEA | not soluble
21 | LQTVCLKGTKHMKCFLAFTQTKTFHEASEDCISRGGTLSTPQTGSENDALYEYLRQSVGNEAEIWLGLNKRWSRYFWVDMTGTRIAYKNWEHSSDAQPDPSNWENCAVLSGAANGKWFGKRCRDQLPYICQFGI | soluble
